{"source": "patent US20240261333A1", "about": "“NOVEL TARGETS FOR ENHANCING ANTI-TUMOR IMMUNITY” (THE BROAD INSTITUTE, INC., priority 2021, published 2024)", "key": {"ATP1A1 (human)": {"target": "ATP1A1 (human) (UniProt P05023)", "assay": "co-IP/MS, anti-FLAG IP of N-FLAG B3GNT2 cell lysate"}, "CALU (human)": {"target": "CALU (human) (UniProt O43852)", "sequence (O43852 20-315 limits assumed)": "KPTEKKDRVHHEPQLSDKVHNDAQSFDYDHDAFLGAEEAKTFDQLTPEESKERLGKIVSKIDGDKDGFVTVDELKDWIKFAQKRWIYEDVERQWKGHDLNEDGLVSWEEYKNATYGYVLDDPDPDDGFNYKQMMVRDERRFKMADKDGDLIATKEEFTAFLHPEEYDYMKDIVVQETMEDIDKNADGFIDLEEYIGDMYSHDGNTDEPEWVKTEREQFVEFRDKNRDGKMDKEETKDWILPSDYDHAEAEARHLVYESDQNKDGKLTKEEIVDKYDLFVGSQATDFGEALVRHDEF", "assay": "co-IP/MS, anti-FLAG IP of N-FLAG B3GNT2 cell lysate"}, "CANX (human)": {"target": "CANX (human) (UniProt P27824)", "assay": "co-IP/MS, anti-FLAG IP of N-FLAG B3GNT2 cell lysate"}, "CAPZA1 (human)": {"target": "CAPZA1 (human) (UniProt P52907)", "assay": "co-IP/MS, anti-FLAG IP of N-FLAG B3GNT2 cell lysate"}, "CAPZB (human)": {"target": "CAPZB (human) (UniProt P47756)", "assay": "co-IP/MS, anti-FLAG IP of N-FLAG B3GNT2 cell lysate"}, "CKAP4 (human)": {"target": "CKAP4 (human) (UniProt Q07065)", "sequence (Q07065 whole entry)": "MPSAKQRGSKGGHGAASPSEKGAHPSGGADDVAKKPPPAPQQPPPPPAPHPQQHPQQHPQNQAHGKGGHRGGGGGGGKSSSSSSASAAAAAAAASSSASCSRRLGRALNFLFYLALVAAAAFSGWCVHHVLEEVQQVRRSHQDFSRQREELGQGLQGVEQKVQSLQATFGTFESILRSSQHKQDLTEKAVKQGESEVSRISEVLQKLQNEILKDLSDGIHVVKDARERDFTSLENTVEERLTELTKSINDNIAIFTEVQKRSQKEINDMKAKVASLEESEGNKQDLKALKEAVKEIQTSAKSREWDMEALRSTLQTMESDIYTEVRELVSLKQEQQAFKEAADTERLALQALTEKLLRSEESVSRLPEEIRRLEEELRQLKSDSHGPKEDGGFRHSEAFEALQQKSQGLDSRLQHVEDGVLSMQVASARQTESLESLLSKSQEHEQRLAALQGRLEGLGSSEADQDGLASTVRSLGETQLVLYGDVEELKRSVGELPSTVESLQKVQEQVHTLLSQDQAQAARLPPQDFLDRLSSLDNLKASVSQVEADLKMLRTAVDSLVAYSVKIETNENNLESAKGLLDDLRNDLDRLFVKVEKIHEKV", "assay": "co-IP/MS, anti-FLAG IP of N-FLAG B3GNT2 cell lysate"}, "DNAJA1 (human)": {"target": "DNAJA1 (human) (UniProt P31689)", "assay": "co-IP/MS, anti-FLAG IP of N-FLAG B3GNT2 cell lysate"}, "ERLIN1 (human)": {"target": "ERLIN1 (human) (UniProt O75477)", "assay": "co-IP/MS, anti-FLAG IP of N-FLAG B3GNT2 cell lysate"}, "ERLIN2 (human)": {"target": "ERLIN2 (human) (UniProt O94905)", "assay": "co-IP/MS, anti-FLAG IP of N-FLAG B3GNT2 cell lysate"}, "FAM3C (human)": {"target": "FAM3C (human) (UniProt Q92520)", "assay": "co-IP/MS, anti-FLAG IP of N-FLAG B3GNT2 cell lysate"}, "GCN1 (human)": {"target": "GCN1 (human) (UniProt Q92616)", "assay": "co-IP/MS, anti-FLAG IP of N-FLAG B3GNT2 cell lysate"}, "HSD17B12 (human)": {"target": "HSD17B12 (human) (UniProt Q53GQ0)", "sequence (Q53GQ0 whole entry)": "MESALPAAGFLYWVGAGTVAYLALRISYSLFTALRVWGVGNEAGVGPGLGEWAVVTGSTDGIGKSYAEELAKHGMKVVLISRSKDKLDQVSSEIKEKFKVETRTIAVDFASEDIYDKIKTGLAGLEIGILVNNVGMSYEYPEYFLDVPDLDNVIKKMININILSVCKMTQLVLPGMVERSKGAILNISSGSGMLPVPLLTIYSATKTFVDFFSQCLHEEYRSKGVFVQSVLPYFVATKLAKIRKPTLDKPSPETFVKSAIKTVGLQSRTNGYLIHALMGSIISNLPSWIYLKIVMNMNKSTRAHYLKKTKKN", "assay": "co-IP/MS, anti-FLAG IP of N-FLAG B3GNT2 cell lysate"}, "IPO4 (human)": {"target": "IPO4 (human) (UniProt Q8TEX9)", "sequence (Q8TEX9 whole entry)": "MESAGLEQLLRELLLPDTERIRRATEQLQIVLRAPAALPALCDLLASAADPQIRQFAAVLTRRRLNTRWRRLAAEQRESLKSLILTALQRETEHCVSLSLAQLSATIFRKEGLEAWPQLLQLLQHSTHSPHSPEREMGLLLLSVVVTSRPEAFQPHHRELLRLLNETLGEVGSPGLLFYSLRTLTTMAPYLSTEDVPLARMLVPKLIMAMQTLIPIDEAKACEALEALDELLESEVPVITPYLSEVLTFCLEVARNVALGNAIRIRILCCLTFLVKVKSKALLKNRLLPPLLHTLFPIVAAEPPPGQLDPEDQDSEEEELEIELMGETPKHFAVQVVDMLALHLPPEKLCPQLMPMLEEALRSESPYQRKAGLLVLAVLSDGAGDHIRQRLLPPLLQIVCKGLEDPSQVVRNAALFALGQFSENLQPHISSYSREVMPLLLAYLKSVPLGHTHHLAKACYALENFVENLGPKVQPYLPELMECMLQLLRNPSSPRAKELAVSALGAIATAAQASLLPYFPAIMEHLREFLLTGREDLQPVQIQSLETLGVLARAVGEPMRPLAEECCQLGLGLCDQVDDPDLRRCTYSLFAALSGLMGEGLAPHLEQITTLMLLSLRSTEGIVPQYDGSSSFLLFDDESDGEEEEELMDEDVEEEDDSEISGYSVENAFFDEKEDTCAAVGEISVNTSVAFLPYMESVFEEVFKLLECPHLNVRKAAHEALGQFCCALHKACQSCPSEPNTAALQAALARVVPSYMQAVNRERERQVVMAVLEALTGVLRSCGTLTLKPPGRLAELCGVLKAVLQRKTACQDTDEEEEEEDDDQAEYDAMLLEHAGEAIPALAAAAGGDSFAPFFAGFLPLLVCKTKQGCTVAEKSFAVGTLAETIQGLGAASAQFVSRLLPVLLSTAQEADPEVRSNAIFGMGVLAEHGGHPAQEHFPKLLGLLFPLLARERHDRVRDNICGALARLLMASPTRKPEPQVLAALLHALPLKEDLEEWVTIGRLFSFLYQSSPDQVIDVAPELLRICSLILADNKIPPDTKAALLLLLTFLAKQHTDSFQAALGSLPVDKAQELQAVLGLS", "assay": "co-IP/MS, anti-FLAG IP of N-FLAG B3GNT2 cell lysate"}, "LRP1 (human)": {"target": "LRP1 (human) (UniProt Q07954)", "assay": "co-IP/MS, anti-FLAG IP of N-FLAG B3GNT2 cell lysate"}, "PCBP1 (human)": {"target": "PCBP1 (human) (UniProt Q15365)", "sequence (Q15365 whole entry)": "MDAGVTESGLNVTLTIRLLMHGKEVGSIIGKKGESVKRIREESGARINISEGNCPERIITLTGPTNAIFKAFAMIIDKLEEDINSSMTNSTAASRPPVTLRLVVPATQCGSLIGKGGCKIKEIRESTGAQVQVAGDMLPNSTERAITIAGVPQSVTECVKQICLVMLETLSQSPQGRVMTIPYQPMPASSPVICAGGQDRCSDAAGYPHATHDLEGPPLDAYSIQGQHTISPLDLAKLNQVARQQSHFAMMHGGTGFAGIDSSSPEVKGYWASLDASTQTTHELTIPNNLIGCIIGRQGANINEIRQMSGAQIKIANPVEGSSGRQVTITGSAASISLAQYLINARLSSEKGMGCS", "assay": "co-IP/MS, anti-FLAG IP of N-FLAG B3GNT2 cell lysate"}, "PDIA6 (human)": {"target": "PDIA6 (human) (UniProt Q15084)", "sequence (Q15084 20-440 limits assumed)": "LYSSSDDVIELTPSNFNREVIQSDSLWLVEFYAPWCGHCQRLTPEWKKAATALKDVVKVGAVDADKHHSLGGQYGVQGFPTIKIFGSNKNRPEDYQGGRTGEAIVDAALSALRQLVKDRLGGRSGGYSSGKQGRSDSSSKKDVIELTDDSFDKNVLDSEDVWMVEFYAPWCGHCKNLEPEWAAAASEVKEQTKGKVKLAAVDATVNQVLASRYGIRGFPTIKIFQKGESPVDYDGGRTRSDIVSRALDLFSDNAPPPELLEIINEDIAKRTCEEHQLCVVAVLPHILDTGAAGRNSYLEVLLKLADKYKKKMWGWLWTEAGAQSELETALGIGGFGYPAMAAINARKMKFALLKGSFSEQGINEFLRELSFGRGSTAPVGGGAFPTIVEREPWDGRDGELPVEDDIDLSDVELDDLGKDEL", "assay": "co-IP/MS, anti-FLAG IP of N-FLAG B3GNT2 cell lysate"}, "PIP (human)": {"target": "PIP (human) (UniProt P12273)", "assay": "co-IP/MS, anti-FLAG IP of N-FLAG B3GNT2 cell lysate"}, "RCN2 (human)": {"target": "RCN2 (human) (UniProt Q14257)", "assay": "co-IP/MS, anti-FLAG IP of N-FLAG B3GNT2 cell lysate"}, "RPL12 (human)": {"target": "RPL12 (human) (UniProt P30050)", "assay": "co-IP/MS, anti-FLAG IP of N-FLAG B3GNT2 cell lysate"}, "RPL13A (human)": {"target": "RPL13A (human) (UniProt P40429)", "assay": "co-IP/MS, anti-FLAG IP of N-FLAG B3GNT2 cell lysate"}, "RPL23A (human)": {"target": "RPL23A (human) (UniProt P62750)", "assay": "co-IP/MS, anti-FLAG IP of N-FLAG B3GNT2 cell lysate"}, "RPLPO (human)": {"target": "RPLPO (human) (UniProt P05388)", "assay": "co-IP/MS, anti-FLAG IP of N-FLAG B3GNT2 cell lysate"}, "RPS7 (human)": {"target": "RPS7 (human) (UniProt P62081)", "assay": "co-IP/MS, anti-FLAG IP of N-FLAG B3GNT2 cell lysate"}, "SLC25A4 (human)": {"target": "SLC25A4 (human) (UniProt P12235)", "assay": "co-IP/MS, anti-FLAG IP of N-FLAG B3GNT2 cell lysate"}, "SQSTM1 (human)": {"target": "SQSTM1 (human) (UniProt Q13501)", "assay": "co-IP/MS, anti-FLAG IP of N-FLAG B3GNT2 cell lysate"}, "UQCRC2 (human)": {"target": "UQCRC2 (human) (UniProt P22695)", "sequence (P22695 15-453 limits assumed)": "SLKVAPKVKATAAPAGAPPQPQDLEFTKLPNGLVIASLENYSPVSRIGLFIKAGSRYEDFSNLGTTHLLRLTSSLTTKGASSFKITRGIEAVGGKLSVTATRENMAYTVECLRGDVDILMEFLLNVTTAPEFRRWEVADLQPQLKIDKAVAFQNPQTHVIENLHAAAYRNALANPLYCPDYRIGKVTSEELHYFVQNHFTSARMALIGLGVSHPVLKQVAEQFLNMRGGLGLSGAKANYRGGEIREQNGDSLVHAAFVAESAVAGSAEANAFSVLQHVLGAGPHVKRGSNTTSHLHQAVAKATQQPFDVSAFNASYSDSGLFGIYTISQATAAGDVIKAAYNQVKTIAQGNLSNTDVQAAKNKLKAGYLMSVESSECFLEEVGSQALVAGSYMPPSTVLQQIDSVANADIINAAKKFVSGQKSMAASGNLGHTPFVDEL", "assay": "co-IP/MS, anti-FLAG IP of N-FLAG B3GNT2 cell lysate"}, "ACSL3 (human)": {"target": "ACSL3 (human) (UniProt O95573)", "assay": "anti-FLAG co-IP from lysate of N-FLAG B3GNT2 cells, mass spectrometry"}, "ERP29 (human)": {"target": "ERP29 (human) (UniProt P30040)", "assay": "anti-FLAG co-IP from lysate of N-FLAG B3GNT2 cells, mass spectrometry"}, "FBXO6 (human)": {"target": "FBXO6 (human) (UniProt Q9NRD1)", "sequence (Q9NRD1 whole entry)": "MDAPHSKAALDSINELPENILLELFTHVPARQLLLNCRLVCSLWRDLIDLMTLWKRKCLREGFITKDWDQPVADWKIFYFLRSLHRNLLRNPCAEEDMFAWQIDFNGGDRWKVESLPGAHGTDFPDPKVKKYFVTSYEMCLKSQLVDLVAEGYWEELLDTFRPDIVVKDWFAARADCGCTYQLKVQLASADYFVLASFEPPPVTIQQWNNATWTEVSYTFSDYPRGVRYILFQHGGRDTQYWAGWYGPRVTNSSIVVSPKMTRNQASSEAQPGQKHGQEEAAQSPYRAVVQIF", "assay": "anti-FLAG co-IP from lysate of N-FLAG B3GNT2 cells, mass spectrometry"}, "KPNB1 (human)": {"target": "KPNB1 (human) (UniProt Q14974)", "assay": "anti-FLAG co-IP from lysate of N-FLAG B3GNT2 cells, mass spectrometry"}, "LARP4 (human)": {"target": "LARP4 (human) (UniProt Q71RC2)", "assay": "anti-FLAG co-IP from lysate of N-FLAG B3GNT2 cells, mass spectrometry"}, "PGAM5 (human)": {"target": "PGAM5 (human) (UniProt Q96HS1)", "sequence (Q96HS1 whole entry)": "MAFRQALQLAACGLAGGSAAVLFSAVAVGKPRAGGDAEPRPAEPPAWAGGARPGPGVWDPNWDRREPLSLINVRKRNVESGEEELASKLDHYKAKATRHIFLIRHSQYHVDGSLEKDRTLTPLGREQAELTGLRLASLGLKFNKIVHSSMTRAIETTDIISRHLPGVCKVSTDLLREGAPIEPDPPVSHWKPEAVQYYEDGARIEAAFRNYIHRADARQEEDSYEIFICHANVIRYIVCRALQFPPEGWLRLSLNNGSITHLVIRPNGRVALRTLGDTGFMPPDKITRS", "assay": "anti-FLAG co-IP from lysate of N-FLAG B3GNT2 cells, mass spectrometry"}, "PSMA5 (human)": {"target": "PSMA5 (human) (UniProt P28066)", "sequence (P28066 whole entry)": "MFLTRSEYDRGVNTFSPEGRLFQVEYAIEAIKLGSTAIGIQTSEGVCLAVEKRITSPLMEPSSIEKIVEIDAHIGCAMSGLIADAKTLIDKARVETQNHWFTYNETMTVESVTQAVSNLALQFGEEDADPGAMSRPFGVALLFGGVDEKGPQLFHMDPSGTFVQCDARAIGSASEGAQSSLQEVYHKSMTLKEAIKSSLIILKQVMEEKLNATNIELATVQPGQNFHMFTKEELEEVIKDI", "assay": "anti-FLAG co-IP from lysate of N-FLAG B3GNT2 cells, mass spectrometry"}, "PSMC2 (human)": {"target": "PSMC2 (human) (UniProt P35998)", "assay": "anti-FLAG co-IP from lysate of N-FLAG B3GNT2 cells, mass spectrometry"}, "RPS6 (human)": {"target": "RPS6 (human) (UniProt P62753)", "assay": "anti-FLAG co-IP from lysate of N-FLAG B3GNT2 cells, mass spectrometry"}, "STAU1 (human)": {"target": "STAU1 (human) (UniProt O95793)", "assay": "anti-FLAG co-IP from lysate of N-FLAG B3GNT2 cells, mass spectrometry"}, "TUBA1C (human)": {"target": "TUBA1C (human) (UniProt Q9BQE3)", "assay": "anti-FLAG co-IP from lysate of N-FLAG B3GNT2 cells, mass spectrometry"}, "ZRANB2 (human)": {"target": "ZRANB2 (human) (UniProt O95218)", "sequence (O95218 other isoform, or with tags, fused parts or gaps limits assumed)": "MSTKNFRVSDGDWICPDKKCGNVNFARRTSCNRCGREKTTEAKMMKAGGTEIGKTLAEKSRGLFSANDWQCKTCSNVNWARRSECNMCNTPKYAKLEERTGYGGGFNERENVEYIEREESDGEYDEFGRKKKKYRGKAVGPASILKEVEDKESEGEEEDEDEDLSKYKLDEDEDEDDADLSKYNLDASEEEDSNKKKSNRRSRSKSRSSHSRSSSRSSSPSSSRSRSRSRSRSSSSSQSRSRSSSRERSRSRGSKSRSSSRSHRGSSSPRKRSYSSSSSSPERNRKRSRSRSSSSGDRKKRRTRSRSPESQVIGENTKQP", "assay": "anti-FLAG co-IP from lysate of N-FLAG B3GNT2 cells, mass spectrometry"}}, "data": [{"substance": "N-terminal FLAG tagged B3GNT2 (from UniProt Q9NY97 1-397) (enzyme)", "values": [{"measurement": "co-IP mass spectrometry count", "setting": "ATP1A1 (human)", "result": 11}, {"measurement": "co-IP mass spectrometry count", "setting": "CALU (human)", "result": 10}, {"measurement": "co-IP mass spectrometry count", "setting": "CANX (human)", "result": 6}, {"measurement": "co-IP mass spectrometry count", "setting": "CAPZA1 (human)", "result": 2}, {"measurement": "co-IP mass spectrometry count", "setting": "CAPZB (human)", "result": 2}, {"measurement": "co-IP mass spectrometry count", "setting": "CKAP4 (human)", "result": 2}, {"measurement": "co-IP mass spectrometry count", "setting": "DNAJA1 (human)", "result": 6}, {"measurement": "co-IP mass spectrometry count", "setting": "ERLIN1 (human)", "result": 11}, {"measurement": "co-IP mass spectrometry count", "setting": "ERLIN2 (human)", "result": 8}, {"measurement": "co-IP mass spectrometry count", "setting": "FAM3C (human)", "result": 2}, {"measurement": "co-IP mass spectrometry count", "setting": "GCN1 (human)", "result": 14}, {"measurement": "co-IP mass spectrometry count", "setting": "HSD17B12 (human)", "result": 10}, {"measurement": "co-IP mass spectrometry count", "setting": "IPO4 (human)", "result": 3}, {"measurement": "co-IP mass spectrometry count", "setting": "LRP1 (human)", "result": 2}, {"measurement": "co-IP mass spectrometry count", "setting": "PCBP1 (human)", "result": 4}, {"measurement": "co-IP mass spectrometry count", "setting": "PDIA6 (human)", "result": 5}, {"measurement": "co-IP mass spectrometry count", "setting": "PIP (human)", "result": 4}, {"measurement": "co-IP mass spectrometry count", "setting": "RCN2 (human)", "result": 7}, {"measurement": "co-IP mass spectrometry count", "setting": "RPL12 (human)", "result": 9}, {"measurement": "co-IP mass spectrometry count", "setting": "RPL13A (human)", "result": 4}, {"measurement": "co-IP mass spectrometry count", "setting": "RPL23A (human)", "result": 6}, {"measurement": "co-IP mass spectrometry count", "setting": "RPLPO (human)", "result": 6}, {"measurement": "co-IP mass spectrometry count", "setting": "RPS7 (human)", "result": 8}, {"measurement": "co-IP mass spectrometry count", "setting": "SLC25A4 (human)", "result": 9}, {"measurement": "co-IP mass spectrometry count", "setting": "SQSTM1 (human)", "result": 3}, {"measurement": "co-IP mass spectrometry count", "setting": "UQCRC2 (human)", "result": 13}, {"measurement": "co-IP mass spectrometry count", "setting": "ACSL3 (human)", "result": 5}, {"measurement": "co-IP mass spectrometry count", "setting": "ERP29 (human)", "result": 2}, {"measurement": "co-IP mass spectrometry count", "setting": "FBXO6 (human)", "result": 4}, {"measurement": "co-IP mass spectrometry count", "setting": "KPNB1 (human)", "result": 3}, {"measurement": "co-IP mass spectrometry count", "setting": "LARP4 (human)", "result": 0}, {"measurement": "co-IP mass spectrometry count", "setting": "PGAM5 (human)", "result": 4}, {"measurement": "co-IP mass spectrometry count", "setting": "PSMA5 (human)", "result": 2}, {"measurement": "co-IP mass spectrometry count", "setting": "PSMC2 (human)", "result": 2}, {"measurement": "co-IP mass spectrometry count", "setting": "RPS6 (human)", "result": 11}, {"measurement": "co-IP mass spectrometry count", "setting": "STAU1 (human)", "result": 2}, {"measurement": "co-IP mass spectrometry count", "setting": "TUBA1C (human)", "result": 76}, {"measurement": "co-IP mass spectrometry count", "setting": "ZRANB2 (human)", "result": 5}]}]}
